Data: article PMC8857470, “Molecular insights into the maturation of phosphodiesterase 6 by the specialized chaperone complex of HSP90 with AIPL1” (The Journal of Biological Chemistry, 2022)
“And” between values parts separate entries of the source, which are not always exact repeats. Equal values may be shown once.

B1: full-length mouse AIPL1 (aa 1–328) (natural protein, UniProt Q924K1 1-328, looked up)
chain: MDVSLLLNVEGVKKTILHGGTGELPSFITGSRVTFHFRTMKCDDERTVIDDSKQVGQPMSIIIGNMFKLEVWETLLTSMRLGEVAEFWCDTIHTGVYPMLSRSLRQVAEGKDPTSWHVHTCGLANMFAYHTLGYEDLDELQKEPQPLVFLIELLQVEAPNEYQRETWNLNNEERMQAVPLLHGEGNRLYKLGRYDQAATKYQEAIVCLRNLQTKEKPWEVEWLKLEKMINTLILNYCQCLLKKEEYYEVLEHTSDILRHHPGIVKAYYMRARAHAEVWNAEEAKADLEKVLELEPSMRKAVLRELRLLESRLADKQEEERQRCRSMLG
notes: also called wt AIPL1; source: E. coli BL21-(DE3), purified (Ni-NTA, Mono Q5, SEC)
B2: AIPL1_(1–316) (domain or fragment, mouse, UniProt Q924K1 1-316, looked up)
chain: MDVSLLLNVEGVKKTILHGGTGELPSFITGSRVTFHFRTMKCDDERTVIDDSKQVGQPMSIIIGNMFKLEVWETLLTSMRLGEVAEFWCDTIHTGVYPMLSRSLRQVAEGKDPTSWHVHTCGLANMFAYHTLGYEDLDELQKEPQPLVFLIELLQVEAPNEYQRETWNLNNEERMQAVPLLHGEGNRLYKLGRYDQAATKYQEAIVCLRNLQTKEKPWEVEWLKLEKMINTLILNYCQCLLKKEEYYEVLEHTSDILRHHPGIVKAYYMRARAHAEVWNAEEAKADLEKVLELEPSMRKAVLRELRLLESRLADKQ
notes: source: E. coli BL21-(DE3), purified (Ni-NTA, Mono Q5, SEC)
B3: AIPL1-Δα3 (Δ111–132) (natural protein, mouse)
chain: MDVSLLLNVEGVKKTILHGGTGELPSFITGSRVTFHFRTMKCDDERTVIDDSKQVGQPMSIIIGNMFKLEVWETLLTSMRLGEVAEFWCDTIHTGVYPMLSRSLRQVAEGGGGGGGYEDLDELQKEPQPLVFLIELLQVEAPNEYQRETWNLNNEERMQAVPLLHGEGNRLYKLGRYDQAATKYQEAIVCLRNLQTKEKPWEVEWLKLEKMINTLILNYCQCLLKKEEYYEVLEHTSDILRHHPGIVKAYYMRARAHAEVWNAEEAKADLEKVLELEPSMRKAVLRELRLLESRLADKQEEERQRCRSMLG
notes: AIPL1, mouse, residues before the replaced stretch 111-132; five glycine residues that replace residues 111 to 132 of AIPL1 (told in words); AIPL1, mouse, residues after the replaced stretch 111-132, to the end of the full-length protein (aa 328); also called AIPL1-Δα3 (loop deletion); α3-helix deletion; source: E. coli BL21-(DE3), purified (Ni-NTA, Mono Q5, SEC)

Experiments:
Details in all cases: both partners purified
[1] = target: T1, Avi-tagged HSP90β (full-length human HSP90β, residues 1–724) (human, UniProt P08238 1-724, biotin (in vivo biotinylation, N-terminally biotinylated)); assay: BLI; apo HSP90: biotinylated Avi-tagged HSP90β on streptavidin sensors, AIPL1 in solution; Octet RED96, 26 °C, 25 mM Tris, 200 mM NaCl, 2.5% glycerol, 1 mM TCEP, 0.5 mg/ml BSA, pH 7.5; 1:1 kinetic fit (KD = koff/kon) and steady-state fit
T1 construct: HSP90β, human, residues 1-724, cDNA isolated from HEK293T cells; Modified pET21a vector: N-terminal His6-tag, then the Avi tag, then a TEV cleavage site; Used apo (open state) or after incubation with AMPPNP (closed state); the two states are told apart by the assay; Host surmised to be E. coli; also called His6-Avi-tagged HSP90β; N-terminally biotinylated hHSP90B; source: cells grown in TB media …

[2] = target: T2, full-length human HSP90β (residues 1–724), pET15b construct (human, UniProt P08238 1-724); assay: cross-linking + other: mass photometry; DSS (0.5 mM) or glutaraldehyde (0.03%) added to HSP90β (15 μM), AIPL1 (25 μM) or their mixture (HSP90_(AMPPNP)/AIPL1), 15 to 30 min at 25 °C, 25 mM Hepes pH 7.5, 200 mM NaCl, 5% glycerol, 1 mM TCEP; products on 3 to 8% Tris-acetate gel and by mass photometry
T2 construct: HSP90β, human, residues 1-724, cDNA isolated from HEK293T cells; Cloned into pET15b through Nco1-Nde1 sites; Host surmised to be E. coli; also called apo HSP90; HSP90_(AMPPNP); source: purified by SEC

[3] = target: T1, Avi-tagged HSP90β (full-length human …); assay: BLI; HSP90_(AMPPNP) (closed state): biotinylated Avi-tagged HSP90β on streptavidin sensors, AIPL1 or mutants in solution; Octet RED96, 26 °C, 25 mM Tris, 200 mM NaCl, 2.5% glycerol, 1 mM TCEP, 0.5 mg/ml BSA, pH 7.5; 1:1 kinetic fit (KD = koff/kon) and steady-state fit

T1 sequence (P08238 whole entry, the tested form may be a part): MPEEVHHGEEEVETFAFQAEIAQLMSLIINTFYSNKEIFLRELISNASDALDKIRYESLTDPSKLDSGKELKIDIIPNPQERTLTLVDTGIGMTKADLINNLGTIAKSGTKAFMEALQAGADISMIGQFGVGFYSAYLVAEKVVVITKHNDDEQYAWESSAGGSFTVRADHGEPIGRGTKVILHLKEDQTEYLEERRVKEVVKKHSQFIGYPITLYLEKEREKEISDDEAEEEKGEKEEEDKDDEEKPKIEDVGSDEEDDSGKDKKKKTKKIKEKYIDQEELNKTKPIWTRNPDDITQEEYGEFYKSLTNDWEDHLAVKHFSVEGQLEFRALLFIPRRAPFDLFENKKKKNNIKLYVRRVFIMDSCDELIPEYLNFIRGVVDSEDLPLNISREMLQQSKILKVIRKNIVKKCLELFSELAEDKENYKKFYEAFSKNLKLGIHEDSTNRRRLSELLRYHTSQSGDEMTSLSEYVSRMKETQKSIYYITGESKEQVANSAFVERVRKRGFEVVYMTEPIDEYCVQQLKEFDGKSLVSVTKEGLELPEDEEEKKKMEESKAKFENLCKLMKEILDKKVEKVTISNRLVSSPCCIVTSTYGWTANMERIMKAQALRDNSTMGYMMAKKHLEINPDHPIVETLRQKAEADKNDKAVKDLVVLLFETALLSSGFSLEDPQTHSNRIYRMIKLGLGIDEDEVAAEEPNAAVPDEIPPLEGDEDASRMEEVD
T2 sequence (P08238 whole entry, the tested form may be a part): as above

Row | Binder | Kd [1] | koff [1] | kon [1] | stoichiometry N [2] | Kd [3] | koff [3] | kon [3] | binding result [3]
1 | B1 | ~17 µM and 32 µM and 33 µM | 1.2 s⁻¹ | 71000 M⁻¹ s⁻¹ | 0.5 AIPL1 per HSP90 chain (1:2) | 4.8 µM | 0.32 s⁻¹ | 150000 M⁻¹ s⁻¹ | –
2 | B2 | – | – | – | – | 27 µM | – | – | –
3 | B3 | – | – | – | – | – | – | – | binds
